Source: article PMC11535040, “Requirement of Nek2a and cyclin A2 for Wapl-dependent removal of cohesin from prophase chromatin” (The EMBO Journal, 2024)

Experiments:
[1] = target: T1, Flag-tagged Pds5b (wild type) from cells co-expressing Nek2aΔMR (human, UniProt Q9NTI5 1-1447, phosphoserine at 1177, 1182 and 1209 (by Nek2a)); test: pull-down; Flag-Pds5a or -b affinity-purified on anti-Flag beads from chromatin-free lysates of taxol-arrested Hek293T cells (expressed alone or with Nek2aΔMR and/or Δ86-cyclin A2); beads incubated with a mixture of recombinant Wapl (2 µl) and sororin (0.3 µg) in 15 µl cleavage buffer with kinase inhibitors, 20 min at 37 °C; bound and unbound fractions by immunoblotting; details: both partners purified
T1 construct: Pds5b, human; insert by PCR on human cDNA; their state in this preparation was not measured; source: Hek293T co-expressing eGFP-Nek2aΔMR, taxol-arrested
T1 sequence (looked up): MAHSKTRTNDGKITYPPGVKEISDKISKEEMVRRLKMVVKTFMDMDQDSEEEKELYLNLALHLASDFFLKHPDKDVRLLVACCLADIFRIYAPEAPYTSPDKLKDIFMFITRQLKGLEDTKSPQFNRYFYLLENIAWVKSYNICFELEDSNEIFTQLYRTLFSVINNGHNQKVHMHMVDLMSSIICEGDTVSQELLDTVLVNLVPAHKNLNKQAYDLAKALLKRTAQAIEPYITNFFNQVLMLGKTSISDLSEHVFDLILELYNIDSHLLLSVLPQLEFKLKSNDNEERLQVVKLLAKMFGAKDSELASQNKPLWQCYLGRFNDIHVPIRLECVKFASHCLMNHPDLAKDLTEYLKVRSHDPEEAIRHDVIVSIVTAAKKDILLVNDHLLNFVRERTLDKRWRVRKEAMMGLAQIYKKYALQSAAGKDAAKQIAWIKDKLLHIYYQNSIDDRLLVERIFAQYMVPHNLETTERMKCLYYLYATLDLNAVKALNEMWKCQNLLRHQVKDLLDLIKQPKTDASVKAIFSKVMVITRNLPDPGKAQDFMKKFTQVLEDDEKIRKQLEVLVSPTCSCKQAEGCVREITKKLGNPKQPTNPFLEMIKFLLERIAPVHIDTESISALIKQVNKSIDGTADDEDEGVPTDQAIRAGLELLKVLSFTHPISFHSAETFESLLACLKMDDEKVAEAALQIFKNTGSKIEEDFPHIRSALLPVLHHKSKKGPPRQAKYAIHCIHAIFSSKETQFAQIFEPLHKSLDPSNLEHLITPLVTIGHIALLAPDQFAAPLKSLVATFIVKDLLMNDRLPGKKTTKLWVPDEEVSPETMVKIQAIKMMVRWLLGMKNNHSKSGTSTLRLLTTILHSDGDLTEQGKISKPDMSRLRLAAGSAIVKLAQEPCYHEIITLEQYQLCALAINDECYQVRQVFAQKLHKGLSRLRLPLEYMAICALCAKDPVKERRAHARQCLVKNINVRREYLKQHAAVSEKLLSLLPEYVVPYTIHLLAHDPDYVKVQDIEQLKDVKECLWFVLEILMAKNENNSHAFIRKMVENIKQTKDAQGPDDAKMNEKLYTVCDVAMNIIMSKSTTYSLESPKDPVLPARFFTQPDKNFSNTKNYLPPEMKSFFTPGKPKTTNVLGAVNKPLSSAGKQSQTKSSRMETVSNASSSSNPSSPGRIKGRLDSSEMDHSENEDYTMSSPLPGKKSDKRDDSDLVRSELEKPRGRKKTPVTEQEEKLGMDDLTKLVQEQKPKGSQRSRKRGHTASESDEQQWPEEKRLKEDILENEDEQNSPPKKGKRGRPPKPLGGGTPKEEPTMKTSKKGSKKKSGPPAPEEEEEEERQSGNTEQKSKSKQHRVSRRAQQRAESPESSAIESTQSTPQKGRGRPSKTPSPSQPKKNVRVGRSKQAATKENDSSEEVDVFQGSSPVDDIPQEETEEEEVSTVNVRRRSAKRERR

[2] = target: T2, Flag-tagged Pds5b (wild type) from cells co-expressing Δ86-cyclin A2 (human, UniProt Q9NTI5 1-1447, phosphoserine at 1161 and 1166 (by Cdk1/2-cyclin A2)); test: as above; details: both partners purified
T2 construct: Pds5b, human; insert by PCR on human cDNA; their state in this preparation was not measured; source: Hek293T co-expressing eGFP-Δ86-cyclin A2, taxol-arrested
T2 sequence (looked up): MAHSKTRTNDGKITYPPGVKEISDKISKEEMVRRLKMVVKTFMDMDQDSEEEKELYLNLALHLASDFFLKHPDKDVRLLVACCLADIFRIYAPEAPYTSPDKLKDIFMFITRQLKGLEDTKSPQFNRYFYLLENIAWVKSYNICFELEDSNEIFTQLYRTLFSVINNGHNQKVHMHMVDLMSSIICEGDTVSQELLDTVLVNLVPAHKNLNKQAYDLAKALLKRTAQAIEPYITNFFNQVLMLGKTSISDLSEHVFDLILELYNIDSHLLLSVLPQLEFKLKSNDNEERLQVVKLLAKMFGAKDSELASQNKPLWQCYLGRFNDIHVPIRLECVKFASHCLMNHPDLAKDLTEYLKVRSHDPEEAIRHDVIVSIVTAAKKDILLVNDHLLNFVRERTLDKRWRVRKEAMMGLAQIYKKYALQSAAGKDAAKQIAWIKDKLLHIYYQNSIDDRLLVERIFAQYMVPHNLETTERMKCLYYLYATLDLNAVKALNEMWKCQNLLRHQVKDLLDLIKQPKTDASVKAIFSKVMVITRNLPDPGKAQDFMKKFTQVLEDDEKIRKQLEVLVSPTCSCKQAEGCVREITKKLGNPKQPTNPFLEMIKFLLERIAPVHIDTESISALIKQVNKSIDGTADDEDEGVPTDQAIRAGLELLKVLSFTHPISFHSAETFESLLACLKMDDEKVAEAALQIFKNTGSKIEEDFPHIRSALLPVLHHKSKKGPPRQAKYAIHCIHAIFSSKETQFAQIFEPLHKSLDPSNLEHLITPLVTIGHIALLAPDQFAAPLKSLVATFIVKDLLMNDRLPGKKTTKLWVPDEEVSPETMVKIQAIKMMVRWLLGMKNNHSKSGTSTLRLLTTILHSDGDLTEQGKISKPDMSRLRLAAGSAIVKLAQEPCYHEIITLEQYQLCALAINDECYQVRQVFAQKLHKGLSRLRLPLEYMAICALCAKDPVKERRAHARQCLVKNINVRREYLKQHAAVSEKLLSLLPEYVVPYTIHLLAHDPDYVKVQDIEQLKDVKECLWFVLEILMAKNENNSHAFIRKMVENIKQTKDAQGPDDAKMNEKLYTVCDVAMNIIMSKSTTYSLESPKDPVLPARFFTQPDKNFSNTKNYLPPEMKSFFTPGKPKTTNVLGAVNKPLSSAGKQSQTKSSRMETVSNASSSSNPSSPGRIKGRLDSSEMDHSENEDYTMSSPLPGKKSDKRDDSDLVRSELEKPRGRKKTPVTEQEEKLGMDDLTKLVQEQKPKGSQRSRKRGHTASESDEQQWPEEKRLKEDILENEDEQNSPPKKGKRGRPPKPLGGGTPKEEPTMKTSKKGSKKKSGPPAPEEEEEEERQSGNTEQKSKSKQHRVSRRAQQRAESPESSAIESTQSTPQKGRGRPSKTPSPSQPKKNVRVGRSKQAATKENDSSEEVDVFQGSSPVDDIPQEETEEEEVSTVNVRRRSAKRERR

- binding result [1]: binds
- binding result [2]: binds
B1: recombinant human Wapl (natural protein, UniProt Q7Z5K2 1-1190, looked up)
chain: MTSRFGKTYSRKGGNGSSKFDEVFSNKRTTLSTKWGETTFMAKLGQKRPNFKPDIQEIPKKPKVEEESTGDPFGFDSDDESLPVSSKNLAQVKCSSYSESSEAAQLEEVTSVLEANSKISHVVVEDTVVSDKCFPLEDTLLGKEKSTNRIVEDDASISSCNKLITSDKVENFHEEHEKNSHHIHKNADDSTKKPNAETTVASEIKETNDTWNSQFGKRPESPSEISPIKGSVRTGLFEWDNDFEDIRSEDCILSLDSDPLLEMKDDDFKNRLENLNEAIEEDIVQSVLRPTNCRTYCRANKTKSSQGASNFDKLMDGTSQALAKANSESSKDGLNQAKKGGVSCGTSFRGTVGRTRDYTVLHPSCLSVCNVTIQDTMERSMDEFTASTPADLGEAGRLRKKADIATSKTTTRFRPSNTKSKKDVKLEFFGFEDHETGGDEGGSGSSNYKIKYFGFDDLSESEDDEDDDCQVERKTSKKRTKTAPSPSLQPPPESNDNSQDSQSGTNNAENLDFTEDLPGVPESVKKPINKQGDKSKENTRKIFSGPKRSPTKAVYNARHWNHPDSEELPGPPVVKPQSVTVRLSSKEPNQKDDGVFKAPAPPSKVIKTVTIPTQPYQDIVTALKCRREDKELYTVVQHVKHFNDVVEFGENQEFTDDIEYLLSGLKSTQPLNTRCLSVISLATKCAMPSFRMHLRAHGMVAMVFKTLDDSQHHQNLSLCTAALMYILSRDRLNMDLDRASLDLMIRLLELEQDASSAKLLNEKDMNKIKEKIRRLCETVHNKHLDLENITTGHLAMETLLSLTSKRAGDWFKEELRLLGGLDHIVDKVKECVDHLSRDEDEEKLVASLWGAERCLRVLESVTVHNPENQSYLIAYKDSQLIVSSAKALQHCEELIQQYNRAEDSICLADSKPLPHQNVTNHVGKAVEDCMRAIIGVLLNLTNDNEWGSTKTGEQDGLIGTALNCVLQVPKYLPQEQRFDIRVLGLGLLINLVEYSARNRHCLVNMETSCSFDSSICSGEGDDSLRIGGQVHAVQALVQLFLERERAAQLAESKTDELIKDAPTTQHDKSGEWQETSGEIQWVSTEKTDGTEEKHKKEEEDEELDLNKALQHAGKHMEDCIVASYTALLLGCLCQESPINVTTVREYLPEGDFSIMTEMLKKFLSFMNLTCAVGTTGQKSISRVIEYLEHC
notes: Wapl, human; insert by PCR on human cDNA; Isolated from mitotically arrested cells; also called GFP-SUMOstar-Wapl; source: Hek293T, transiently transfected, taxol-arrested; not shown: GFP, N-terminal, cleaved; SUMOstar, N-terminal, cleaved
